B1: Sumo-tagged Drosophila Spd-2 SP2D (Spd-2 697-998), wild type [D. melanogaster] / itself (parent)
chain: LLPLKVTHTTLCWGSTKLRTDVRKSMQVKNTADKRLVIRLGIQGPGFQLVGTDSSTITLQAMECRSVVINFCPTVCGAAIGALSFYAPPGAHNSNQPGLEIPLYGYGGSASITINGLLKGPVGASFLTIGDVCELSAGPLSANLKFHNKGPLTAFVGISVDSTVLMKLRLSEAFEVRPSRLILPPNSERCVQILFRPNREDLKNILKKTAQVLTLANMRIFCGDEPNRQRMRSLVQRMSSRQREKLTSPMLDSIWGEFPDEQPVRNIGQLNEPPEFILDLVTVVRIIDVALTLNRDFDESSE

Variants of: B1
Test: SEC-MALS
Settings: with itself; 200 µM protein; read off a plot

Row | Variant | screen value
1 | LLPLKVTHTTLCWGSTKLRTDVRKSMQVKNTADKRLVIRLGIQGPGFQLVGTDSSTITLQAMECRSVVINFCPTVCGAAIGALSFYAPPGAHNSNQPGLEIPLYGYGGSASITINGLLKGPVGASDLTIGDVCELSAGPLSANLKFHNKGPLTAFVGISVDSTVLMKLRLSEAFEVRPSRLILPPNSERCVQILFRPNREDLKNILKKTAQVLTLANMRIFCGDEPNRQRMRSLVQRMSSRQREKLTSPMLDSIWGEFPDEQPVRNIGQLNEPPEFILDLVTVVRIIDVALTLNRDFDESSE [chain 1 F126D] | 46 kDa
2 | LLPLKVTHTTLCWGSTKLRTDVRKSMQVKNTADKRLVIRLGIQGPGFQLVGTDSSTITLQAMECRSVVINFCPTVCGAAIGALSFYAPPGAHNSNQPGLEIPLYGYGGSASITINGLLKGDVGASFLTIGDVCELSAGPLSANLKFHNKGPLTAFVGISVDSTVLMKLRLSEAFEVRPSRLILPPNSERCVQILFRPNREDLKNILKKTAQVLTLANMRIFCGDEPNRQRMRSLVQRMSSRQREKLTSPMLDSIWGEFPDEQPVRNIGQLNEPPEFILDLVTVVRIIDVALTLNRDFDESSE [chain 1 P121D] | 45 kDa
